This note sets out measurements from publication PMC5662131.

Assay [1] addresses T1, (His)6-KcsA, K+ channel from Streptomyces lividans (Streptomyces lividans), P0A334.
T1 chain: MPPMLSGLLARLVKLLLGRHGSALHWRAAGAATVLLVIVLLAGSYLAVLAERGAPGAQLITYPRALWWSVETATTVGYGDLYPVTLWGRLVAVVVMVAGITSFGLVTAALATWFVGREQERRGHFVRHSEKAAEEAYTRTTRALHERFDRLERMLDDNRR
Description: SDS-PAGE with Western blot. The following applies: remark: other sources report otherwise. For orientation: In western blotting, separated proteins are transferred to a membrane and probed.

The target in assay [2] is T1, (His)6-KcsA, K+ channel from …. Description: SEC. The following applies: remark: other sources report otherwise.

B1: (His)6-KcsA, K+ channel from Streptomyces lividans, P0A334 1-160 (natural protein)
chain: T1 chain
As for B1, the stoichiometry N in assay [1] and in assay [2] was 4 each time.
